Reference: patent US20040146873
Numbering of substitutions follows the chain as printed.

Key:
[1] = biological target: mPER2 fragment, amino acids 472 to 804, serine 659 substituted by glycine, 6-myc-tagged (UniProt O54943)
[2] = system: hPER2 peptides in the region of serine 662 with a negative charge at position 662 (covalently linked phosphate or aspartate)
[3] = biological target: mPER2 fragment, amino acids 472 to 804, wild-type, 6-myc-tagged (UniProt O54943)
[4] = system: T1, hPER2 fragment, amino acids 474 to 815, mutant S662G (662G), 6-myc-tagged
T1 sequence: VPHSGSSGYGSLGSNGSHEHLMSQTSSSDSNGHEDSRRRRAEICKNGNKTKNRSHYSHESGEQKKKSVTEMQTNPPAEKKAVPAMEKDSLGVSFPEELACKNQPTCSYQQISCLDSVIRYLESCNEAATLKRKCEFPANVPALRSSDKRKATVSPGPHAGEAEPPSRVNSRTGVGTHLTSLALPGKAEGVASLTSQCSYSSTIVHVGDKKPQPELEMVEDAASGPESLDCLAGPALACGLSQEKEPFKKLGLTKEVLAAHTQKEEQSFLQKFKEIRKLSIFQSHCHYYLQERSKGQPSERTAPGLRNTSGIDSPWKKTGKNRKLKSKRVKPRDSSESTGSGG

[5] = system: T2, hPER2 fragment, amino acids 474 to 815, wild-type (662S), 6-myc-tagged
T2 sequence: T1 sequence with G189S

[6] = system: T3, hPER2 fragment, amino acids 474 to 815, S662D, 6-myc-tagged
T3 sequence: T1 sequence with G189D

[7] = system: T4, hPER2 fragment, amino acids 474 to 815, S662E, 6-myc-tagged
T4 sequence: T1 sequence with G189E

Chain of casein kinase Iε (CKIε) (P49674 whole entry): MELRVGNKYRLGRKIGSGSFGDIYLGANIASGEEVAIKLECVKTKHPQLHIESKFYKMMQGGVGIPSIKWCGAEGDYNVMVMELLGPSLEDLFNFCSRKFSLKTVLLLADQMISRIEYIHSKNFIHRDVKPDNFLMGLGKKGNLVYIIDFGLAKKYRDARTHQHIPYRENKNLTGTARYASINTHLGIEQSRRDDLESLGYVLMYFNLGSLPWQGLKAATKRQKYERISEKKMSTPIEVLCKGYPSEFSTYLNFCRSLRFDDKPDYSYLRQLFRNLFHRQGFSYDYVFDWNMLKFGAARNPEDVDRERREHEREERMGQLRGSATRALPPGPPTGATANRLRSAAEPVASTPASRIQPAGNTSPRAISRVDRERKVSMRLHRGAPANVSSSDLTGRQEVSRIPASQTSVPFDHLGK

For casein kinase Iε (CKIε), the “electrophoretic mobility shift (phosphorylation) at low CKIε” value [1] was “A similar result was obtained with wild-type and mutant mPER2 fragments (data not shown)”, the “phosphorylation stoichiometry (biochemical phosphorylation assay and mass spectrometry)” value [2] was “phosphorylation of an additional four moles per mole of substrate when there is a negative charge at serine 662” and the “electrophoretic mobility shift (phosphorylation) at low CKIε” value [3] was “A similar result was obtained with wild-type and mutant mPER2 fragments (data not shown)”. For the same substance, the “electrophoretic mobility shift (phosphorylation) at higher CKIε, 6.5 ng/µl” value [4] was “mobility shifts were observed for both the wild type and mutant hPER2 fragments”, the “electrophoretic mobility shift (phosphorylation) at low CKIε, 0.25 ng/µl” value [4] was “an electrophoretic mobility shift was observed with the wild-type (662S) but not with the mutant (662G) fragment” and the “electrophoretic mobility shift (phosphorylation) at higher CKIε, 6.5 ng/µl” value [5] was “mobility shifts were observed for both the wild type and mutant hPER2 fragments”. The “electrophoretic mobility shift (phosphorylation) at low CKIε, 0.25 ng/µl” value [5] was “an electrophoretic mobility shift was observed with the wild-type (662S) but not with the mutant (662G) fragment”, the “phosphorylation (mobility shift)” value [6] was “Phosphorylation was restored in both the S662D and S662E mutants, with a higher phosphorylation rate observed with the S662D mutant” and the “phosphorylation (mobility shift)” value [7] was “Phosphorylation was restored in both the S662D and S662E mutants, with a higher phosphorylation rate observed with the S662D mutant”.
